Laboratory results taken from publication doi:10.1101/2022.06.28.497981.

Key:
[1] = target: batCOV5-M, trypsin-treated stable core as crystallized (batCOV5-M_(xtal)) (Pipistrellus bat coronavirus HKU5) (UniProt A3EXD6); assay: crystal structure
[2] = target: batCOV5-MCTD-GFP as crystallized (Pipistrellus bat coronavirus HKU5) (UniProt A3EXD6); assay: crystal structure

Row | Substance | stoichiometry N [1] | stoichiometry N [2]
1 | batCOV5-M, trypsin-treated stable core as crystallized (batCOV5-M_(xtal)) (from UniProt A3EXD6 1-220) (natural protein) | 2 | 
2 | batCOV5-MCTD-GFP as crystallized (from UniProt A3EXD6 115-203) (domain or fragment) |  | 4
